Source: patent US6972319B1, “Pituitary adenylate cyclase activating peptide (PACAP)receptor 3 (R3) agonists and their pharmacological methods of use” (priority 1999, dated 2005)
No end group written: not given here.

T1: PACAP-R3 (human, UniProt P41587 24-438)
T1 sequence (looked up): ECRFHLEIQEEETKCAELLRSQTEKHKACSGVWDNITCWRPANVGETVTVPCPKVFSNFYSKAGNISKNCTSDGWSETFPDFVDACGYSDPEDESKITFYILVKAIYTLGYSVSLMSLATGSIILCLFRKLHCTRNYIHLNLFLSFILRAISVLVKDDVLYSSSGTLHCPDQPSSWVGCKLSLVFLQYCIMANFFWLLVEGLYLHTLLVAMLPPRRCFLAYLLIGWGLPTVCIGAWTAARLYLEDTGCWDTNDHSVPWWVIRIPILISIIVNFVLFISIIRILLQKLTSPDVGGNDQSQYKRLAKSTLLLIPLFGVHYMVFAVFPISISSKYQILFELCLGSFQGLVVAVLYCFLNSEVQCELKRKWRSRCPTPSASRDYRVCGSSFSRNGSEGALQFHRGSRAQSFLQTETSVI


These binders were tested against T1, PACAP-R3 (assay: cell-based or functional assay).

R3 EC50 [nM] | R3 Selectivity | Binder
1.8 | 100 | HSDAVFTDNYTRLRKQVAAKKYLNSIKK [R3P62]
0.5 | 2 | HSDGIFTDSYSRYRKQLAVKKYLAAVKK [R3P39]
2 | 20 | HSDAVFTDNYTRLRKQMAVKKYLNSIKKGGT [R3P9]
0.7 | 2 | HSDGIFTDSYSRYRKQMAVKKYLAAVKK [R3P40]
0.16 | > 600 | HSDAVFTDQYTRLRKQLAAKKYLNTIKNKRY [R3P72]
0.3 | > 500 | HSDAVFTDQYTRLRKQLAAHKYLNTIKNKRY [R3P75]
0.44 |  | HSDAVFTDNYTRLRKQVAVKKYLQSIKKKR [R3P80]
1 | 40 | HSDAVFTDNYTRLRKQMAEKKYLNSIKNKR [R3P99]
1.1 | 230 | HSDAVFTDNYTRLRKQVAAKKYLNSIKKKR [R3P78]
0.4 | 500 | HSDAVFTDNYTRLRKQVAAKKYLQSIKKKR [R3P77]
0.75 | 130 | HSDAVFTENYTKLRKQLAAKKYLNDLKKGGT [R3P3]
7 | 30 | HSDAVFTENYTKLRKQLAAKKYLNDLKK [R3P5]
4 | 2 | HSDGIFTDSYSRYRKQMAVKKYLAAVKKYLAAVRHG-NH2 [R3P17]
0.23 | 190 | HSDAVFTDNYTRLRKQMAVKKYLNSIKKKR [R3P57]
1.4 | 1.5 | HSDAVFTDNYTRLRKQMAVKKYLNSIKK-NH2 [R3P8]
1 | 120 | HSDAVFTDNYTRLRKQVAAKKYLQSIKK [R3P60]
2.3 | 7 | HSDGIFTDSYSRYRKQLAAKKYLADVKK [R3P38]
4 | 18 | HSDGIFTDSYSRYRKQLAAKKYLADVKKGGT [R3P37]
0.06 | 40 | HSDAVFTDNYTRLRKQVAAKKYLQSILKKR [R3P84]
0.18 | 30 | HSDAVFTDNYTRLRKQVAAKKYLQSILKK [R3P85]
80 | 3 | HSDGIFTESYSRYRKQMAVKKYLAALKKKRYKQRVKNK [R3P6]
0.5 | 100 | HSDAVFTDNYTRLRKQVAVKKYLQSIKKK [R3P81]
0.43 | 23 | HSDAVFTDNYTRLRKQLAAKKYLNDILKGGT [R3P23]
0.8 | 8 | HSDAVFTDNYTRLRKQLAAKKYLNDILNGGT [R3P27]
7 | 1 | HSDAVFTDNYTRLRKQLAVKKYLNDILKGGT [R3P28]
0.14 | 40 | HSDAVFTDNYTRLRKQVAAKKYLQSILNKR [R3P93]

R3 EC50 [nM] | R3 Selectivity | Binder
3 | > 300 | Ac-HSDAVFTENYTKLRKQLAAKKYLNDLKKGGT (ends and bridges not checked) [R3P2]
0.15 | 70 | HSDAVFTDNYTRLRKQMAVKKYLNSIKNKRY [R3P59]
0.5 |  | HSDAVFTDNYTRLRKQVAAKKYLNSIKNKRY [R3P79]
0.3 | 330 | HSDAVFTDNYTRLRKQLAAKKYLNTIKNKRY [R3P67]
0.5 |  | HSDAVFTDNYTRLRKQVAAKKYLNSIKNKRY [R3P68]
0.4 | 250 | HSDAVFTDNYTRLRKQVAAKKYLQSIKNKRY [R3P66]
0.6 | 150 | HSDAVFTDNYTRLRKQMAAKHYLNSIKNKRY [R3P74]
0.4 | > 250 | HSDAVFTDNYTRLRKQMAAKKYLNTIKNKRY [R3P70]
0.5 | 190 | HSDAVFTDNYTRLRKQMAAKKYLQSIKNKRY [R3P69]
0.09 | 660 | HSDAVFTDQYTRLRKQMAAKKYLNSIKNKRY [R3P71]
0.4 | 23 | HSDAVFTDNYTRLRKQVAVKKYLQSIKNKRY [R3P82]
0.3 | 170 | HSDAVFTDNYTRLRKQMAAHKYLNSIKNKRY [R3P73]
0.8 | 140 | HSDAVFTDNYTRLRKQIAAKKYLQTIKK [R3P61]
0.3 | 30 | HSDAVFTDNYTRLRKQMAFKKYLNSIKNKR [R3P100]
10 | 1.4 | HSDGIFTDSYSRYRKQMAVKKYLAAVKQGGT-NH2 [R3P16]
0.32 | 170 | HSDAVFTDNYTRLRKQMAVKKYLNSIKKK [R3P58]
0.08 | 60 | HSDAVFTDNYTRLRKQVAAKKYLQSILKKRY [R3P83]
0.02 | 100 | HSDAVFTDNYTRLRKQVAAKKYLQSILNKRY [R3P92]
0.2 | 3 | HSDAVFTDNYTRLRKQVAVKKYLQSILKKRY [R3P87]
0.8 | 110 | HSDAVFTDNYTRLRKQVAAKKYLQSIKNK [R3P86]
0.08 | 12 | HSDAVFTDNYTRLRKQVAVKKYLQSILKKR [R3P88]
0.06 | 15 | HSDAVFTDNYTRLRKQVAVKKYLQSILKK [R3P89]
0.6 | 130 | HSDAVFTDNYTRLRKQMAAKKYLNSIKNKR [R3P65]
0.09 | 100 | HSDAVFTDNYTRLRKQVAAKKYLQSILNK [R3P94]
4 | 0.5 | HSDAVFTENYTRLRKQMAVKKYLNSLKK-NH2 [R3P7]
